Measured values published in patent publication US20120172293A1 (Takeda / Millennium, published 2012).
Non-standard residues stand in square brackets, D forms with d. No end group written: not given here. *: point of attachment. X11 = ((1S)-1-carboxy-3-methylbutyl)carbamoyl, CC(C)C[C@H](NC(=O)*)C(=O)O; Phe(4-Me) = Cc1ccc(C[C@H](N)C(=O)O)cc1; 1Nal = N[C@@H](Cc1cccc2ccccc12)C(=O)O; 2Nal = N[C@@H](Cc1ccc2ccccc2c1)C(=O)O; Phe(2-F) = N[C@@H](Cc1ccccc1F)C(=O)O; NMeF = CN[C@@H](Cc1ccccc1)C(=O)O; Tic = O=C(O)[C@@H]1Cc2ccccc2CN1; Cha = N[C@@H](CC1CCCCC1)C(=O)O; Cit = NC(=O)NCCC[C@H](N)C(=O)O; dIva = CC[C@@](C)(N)C(=O)O; 4Amb = NCc1ccc(C(=O)O)cc1; hSer = N[C@@H](CCO)C(=O)O; Iva = CC[C@](C)(N)C(=O)O; Ac3c = NC1(C(=O)O)CC1; Aib = CC(C)(N)C(=O)O

T1: human Y2 receptor (human, UniProt P49146 1-381)
T1 construct: whole, on cells; used as membrane fraction of hY2R/CHO cells; also called human NPY2R; hY2R
T1 sequence (looked up): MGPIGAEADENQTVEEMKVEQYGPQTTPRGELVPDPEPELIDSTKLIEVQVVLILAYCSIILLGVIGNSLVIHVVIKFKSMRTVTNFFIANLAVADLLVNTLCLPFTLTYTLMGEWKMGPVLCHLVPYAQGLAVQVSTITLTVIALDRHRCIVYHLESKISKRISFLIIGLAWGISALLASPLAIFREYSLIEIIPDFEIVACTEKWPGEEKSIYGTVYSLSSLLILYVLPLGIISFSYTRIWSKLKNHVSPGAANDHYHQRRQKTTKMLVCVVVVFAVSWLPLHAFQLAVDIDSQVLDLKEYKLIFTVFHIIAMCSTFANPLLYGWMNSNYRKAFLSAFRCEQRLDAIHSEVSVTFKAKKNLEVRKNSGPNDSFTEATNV

B1: 4-Aminomethylbenzoyl-[Ala26, Ile28,31, Phe(4Me)36]-PYY(25-36) (peptide)
peptide: [4Amb]RAYINLITRQR[Phe(4-Me)]-NH2
modifications: N-terminus assumed
SMILES: CC[C@H](C)[C@H](NC(=O)[C@H](Cc1ccc(O)cc1)NC(=O)[C@H](C)NC(=O)[C@H](CCCNC(=N)N)NC(=O)c1ccc(CN)cc1)C(=O)N[C@@H](CC(N)=O)C(=O)N[C@@H](CC(C)C)C(=O)N[C@H](C(=O)N[C@H](C(=O)N[C@@H](CCCNC(=N)N)C(=O)N[C@@H](CCC(N)=O)C(=O)N[C@@H](CCCNC(=N)N)C(=O)N[C@@H](Cc1ccc(C)cc1)C(N)=O)[C@@H](C)O)[C@@H](C)CC
notes: also called compound No. 15
B2: Ac-[D-Pro24, Cha27,28, Aib31, Phe(2F)36]-PYY(23-36) (peptide)
peptide: Ac-S[dP]RH[Cha][Cha]NL[Aib]TRQR[Phe(2-F)]-NH2
SMILES: CC(=O)N[C@@H](CO)C(=O)N1CCC[C@@H]1C(=O)N[C@@H](CCCNC(=N)N)C(=O)N[C@@H](Cc1c[nH]cn1)C(=O)N[C@@H](CC1CCCCC1)C(=O)N[C@@H](CC1CCCCC1)C(=O)N[C@@H](CC(N)=O)C(=O)N[C@@H](CC(C)C)C(=O)NC(C)(C)C(=O)N[C@H](C(=O)N[C@@H](CCCNC(=N)N)C(=O)N[C@@H](CCC(N)=O)C(=O)N[C@@H](CCCNC(=N)N)C(=O)N[C@@H](Cc1ccccc1F)C(N)=O)[C@@H](C)O
notes: also called compound No. 194
B3: 4-Aminomethylbenzoyl-[Ala26, Ile28,31, Tic36]-PYY(25-36) (peptide)
peptide: [4Amb]RAYINLITRQR[Tic]-NH2
modifications: N-terminus assumed
SMILES: CC[C@H](C)[C@H](NC(=O)[C@H](Cc1ccc(O)cc1)NC(=O)[C@H](C)NC(=O)[C@H](CCCNC(=N)N)NC(=O)c1ccc(CN)cc1)C(=O)N[C@@H](CC(N)=O)C(=O)N[C@@H](CC(C)C)C(=O)N[C@H](C(=O)N[C@H](C(=O)N[C@@H](CCCNC(=N)N)C(=O)N[C@@H](CCC(N)=O)C(=O)N[C@@H](CCCNC(=N)N)C(=O)N1Cc2ccccc2C[C@H]1C(N)=O)[C@@H](C)O)[C@@H](C)CC
notes: also called compound No. 17
B4: Ac-[D-Pro24, D-Iva27, Cha28,36, Aib31]-PYY(23-36) (peptide)
peptide: Ac-S[dP]RH[dIva][Cha]NL[Aib]TRQR[Cha]-NH2
SMILES: CC[C@@](C)(NC(=O)[C@H](Cc1c[nH]cn1)NC(=O)[C@H](CCCNC(=N)N)NC(=O)[C@H]1CCCN1C(=O)[C@H](CO)NC(C)=O)C(=O)N[C@@H](CC1CCCCC1)C(=O)N[C@@H](CC(N)=O)C(=O)N[C@@H](CC(C)C)C(=O)NC(C)(C)C(=O)N[C@H](C(=O)N[C@@H](CCCNC(=N)N)C(=O)N[C@@H](CCC(N)=O)C(=O)N[C@@H](CCCNC(=N)N)C(=O)N[C@@H](CC1CCCCC1)C(N)=O)[C@@H](C)O
notes: also called compound No. 180
B5: Ac-[D-Pro24, Cha27,36, Acpc28, Aib31]-PYY(23-36) (peptide)
peptide: Ac-S[dP]RH[Cha][Ac3c]NL[Aib]TRQR[Cha]-NH2
SMILES: CC(=O)N[C@@H](CO)C(=O)N1CCC[C@@H]1C(=O)N[C@@H](CCCNC(=N)N)C(=O)N[C@@H](Cc1c[nH]cn1)C(=O)N[C@@H](CC1CCCCC1)C(=O)NC1(C(=O)N[C@@H](CC(N)=O)C(=O)N[C@@H](CC(C)C)C(=O)NC(C)(C)C(=O)N[C@H](C(=O)N[C@@H](CCCNC(=N)N)C(=O)N[C@@H](CCC(N)=O)C(=O)N[C@@H](CCCNC(=N)N)C(=O)N[C@@H](CC2CCCCC2)C(N)=O)[C@@H](C)O)CC1
notes: also called compound No. 145
B6: 4-Aminomethylbenzoyl-[Ala26, Ile28,31, Nal(2)36]-PYY(25-36) (peptide)
peptide: [4Amb]RAYINLITRQR[2Nal]-NH2
modifications: N-terminus assumed
SMILES: CC[C@H](C)[C@H](NC(=O)[C@H](Cc1ccc(O)cc1)NC(=O)[C@H](C)NC(=O)[C@H](CCCNC(=N)N)NC(=O)c1ccc(CN)cc1)C(=O)N[C@@H](CC(N)=O)C(=O)N[C@@H](CC(C)C)C(=O)N[C@H](C(=O)N[C@H](C(=O)N[C@@H](CCCNC(=N)N)C(=O)N[C@@H](CCC(N)=O)C(=O)N[C@@H](CCCNC(=N)N)C(=O)N[C@@H](Cc1ccc2ccccc2c1)C(N)=O)[C@@H](C)O)[C@@H](C)CC
notes: also called compound No. 14
B7: Ac-[D-Pro24, Cha27,36, Hse28, Aib31]-PYY(23-36) (peptide)
peptide: Ac-S[dP]RH[Cha][hSer]NL[Aib]TRQR[Cha]-NH2
SMILES: CC(=O)N[C@@H](CO)C(=O)N1CCC[C@@H]1C(=O)N[C@@H](CCCNC(=N)N)C(=O)N[C@@H](Cc1c[nH]cn1)C(=O)N[C@@H](CC1CCCCC1)C(=O)N[C@@H](CCO)C(=O)N[C@@H](CC(N)=O)C(=O)N[C@@H](CC(C)C)C(=O)NC(C)(C)C(=O)N[C@H](C(=O)N[C@@H](CCCNC(=N)N)C(=O)N[C@@H](CCC(N)=O)C(=O)N[C@@H](CCCNC(=N)N)C(=O)N[C@@H](CC1CCCCC1)C(N)=O)[C@@H](C)O
notes: also called compound No. 144
B8: 4-Aminomethylbenzoyl-[Ala26, Ile28,31, NMePhe36]-PYY(25-36) (peptide)
peptide: [4Amb]RAYINLITRQR[NMeF]-NH2
modifications: N-terminus assumed
SMILES: CC[C@H](C)[C@H](NC(=O)[C@H](Cc1ccc(O)cc1)NC(=O)[C@H](C)NC(=O)[C@H](CCCNC(=N)N)NC(=O)c1ccc(CN)cc1)C(=O)N[C@@H](CC(N)=O)C(=O)N[C@@H](CC(C)C)C(=O)N[C@H](C(=O)N[C@H](C(=O)N[C@@H](CCCNC(=N)N)C(=O)N[C@@H](CCC(N)=O)C(=O)N[C@@H](CCCNC(=N)N)C(=O)N(C)[C@@H](Cc1ccccc1)C(N)=O)[C@@H](C)O)[C@@H](C)CC
notes: also called compound No. 16
B9: 4-Aminomethylbenzoyl-[Ala26, Ile28,31, Nal(1)36]-PYY(25-36) (peptide)
peptide: [4Amb]RAYINLITRQR[1Nal]-NH2
modifications: N-terminus assumed
SMILES: CC[C@H](C)[C@H](NC(=O)[C@H](Cc1ccc(O)cc1)NC(=O)[C@H](C)NC(=O)[C@H](CCCNC(=N)N)NC(=O)c1ccc(CN)cc1)C(=O)N[C@@H](CC(N)=O)C(=O)N[C@@H](CC(C)C)C(=O)N[C@H](C(=O)N[C@H](C(=O)N[C@@H](CCCNC(=N)N)C(=O)N[C@@H](CCC(N)=O)C(=O)N[C@@H](CCCNC(=N)N)C(=O)N[C@@H](Cc1cccc2ccccc12)C(N)=O)[C@@H](C)O)[C@@H](C)CC
notes: also called compound No. 13
B10: Ac-[D-Pro24, Iva27, Cha28,36, Aib31]-PYY(23-36) (peptide)
peptide: Ac-S[dP]RH[Iva][Cha]NL[Aib]TRQR[Cha]-NH2
SMILES: CC[C@](C)(NC(=O)[C@H](Cc1c[nH]cn1)NC(=O)[C@H](CCCNC(=N)N)NC(=O)[C@H]1CCCN1C(=O)[C@H](CO)NC(C)=O)C(=O)N[C@@H](CC1CCCCC1)C(=O)N[C@@H](CC(N)=O)C(=O)N[C@@H](CC(C)C)C(=O)NC(C)(C)C(=O)N[C@H](C(=O)N[C@@H](CCCNC(=N)N)C(=O)N[C@@H](CCC(N)=O)C(=O)N[C@@H](CCCNC(=N)N)C(=O)N[C@@H](CC1CCCCC1)C(N)=O)[C@@H](C)O
notes: also called compound No. 175
B11: Ac-[D-Pro24, Cit27, Cha28,36, Aib31]-PYY(23-36) (peptide)
peptide: Ac-S[dP]RH[Cit][Cha]NL[Aib]TRQR[Cha]-NH2
SMILES: CC(=O)N[C@@H](CO)C(=O)N1CCC[C@@H]1C(=O)N[C@@H](CCCNC(=N)N)C(=O)N[C@@H](Cc1c[nH]cn1)C(=O)N[C@@H](CCCNC(N)=O)C(=O)N[C@@H](CC1CCCCC1)C(=O)N[C@@H](CC(N)=O)C(=O)N[C@@H](CC(C)C)C(=O)NC(C)(C)C(=O)N[C@H](C(=O)N[C@@H](CCCNC(=N)N)C(=O)N[C@@H](CCC(N)=O)C(=O)N[C@@H](CCCNC(=N)N)C(=O)N[C@@H](CC1CCCCC1)C(N)=O)[C@@H](C)O
notes: also called compound No. 146
B12: [(1S)-1-carboxy-3-methylbutyl]carbamoyl-[D-Pro24, Cha27,28,36, Aib31]-PYY(23-36) (peptide)
peptide: X11-S[dP]RH[Cha][Cha]NL[Aib]TRQR[Cha]-NH2
SMILES: CC(C)C[C@H](NC(=O)N[C@@H](CO)C(=O)N1CCC[C@@H]1C(=O)N[C@@H](CCCNC(=N)N)C(=O)N[C@@H](Cc1c[nH]cn1)C(=O)N[C@@H](CC1CCCCC1)C(=O)N[C@@H](CC1CCCCC1)C(=O)N[C@@H](CC(N)=O)C(=O)N[C@@H](CC(C)C)C(=O)NC(C)(C)C(=O)N[C@H](C(=O)N[C@@H](CCCNC(=N)N)C(=O)N[C@@H](CCC(N)=O)C(=O)N[C@@H](CCCNC(=N)N)C(=O)N[C@@H](CC1CCCCC1)C(N)=O)[C@@H](C)O)C(=O)O
notes: also called compound No. 184
B13: Ac-[Arg20, D-Tyr21, D-Pro24, Cha27,28,36, Aib31]-PYY(20-36) (peptide)
peptide: Ac-R[dY]AS[dP]RH[Cha][Cha]NL[Aib]TRQR[Cha]-NH2
SMILES: CC(=O)N[C@@H](CCCNC(=N)N)C(=O)N[C@H](Cc1ccc(O)cc1)C(=O)N[C@@H](C)C(=O)N[C@@H](CO)C(=O)N1CCC[C@@H]1C(=O)N[C@@H](CCCNC(=N)N)C(=O)N[C@@H](Cc1c[nH]cn1)C(=O)N[C@@H](CC1CCCCC1)C(=O)N[C@@H](CC1CCCCC1)C(=O)N[C@@H](CC(N)=O)C(=O)N[C@@H](CC(C)C)C(=O)NC(C)(C)C(=O)N[C@H](C(=O)N[C@@H](CCCNC(=N)N)C(=O)N[C@@H](CCC(N)=O)C(=O)N[C@@H](CCCNC(=N)N)C(=O)N[C@@H](CC1CCCCC1)C(N)=O)[C@@H](C)O
notes: also called compound No. 164

Assays:
[1] = target: T1, human Y2 receptor; test: RBA: [125I]-PYY displacement, hY2R/CHO membranes
How it was run: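 Bound radioligand was collected by filtration on PEI-treated GF/C filters, washed with Tris/MgCl₂/NaCl/CHAPS buffer pH 7.4, and counted by scintillation; IC₅₀ values were calculated.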

[2] = target: T1, human Y2 receptor; test: cell-based or functional assay

Binder	IC50 Ratio (vs PYY(3-36)) [1] [ratio]	GBA EC50 Ratio (vs PYY(3-36)), [35S]GTPγS [2] [ratio]
B1	8.7	5.5
B2	1.4	1.3
B3	180	66
B4	8.1	6
B5	160	17
B6	14	6.9
B7	22	4.5
B8	120	45
B9	7.6	3.6
B10	6.4	2.6
B11	36	5.6
B12	1.5	2.9
B13	0.44	0.66
